According to patent US20230398228A1, “ERIBULIN-BASED ANTIBODY-DRUG CONJUGATES AND METHODS OF USE” (EISAI R&D MANAGEMENT CO., LTD., priority 2016, published 2023):
Where two headings read alike, the source gives them in different places.

Experiments:
[1] = target: Recombinant human folate receptor alpha (Homo sapiens, UniProt P15328); experiment: ELISA, folate receptor alpha; assay type: binding; details: MORAb-003 and its ADCs
Method: Coating solution was discarded and the plates were washed three times using 1×PBS with 0.05% Tween-20 (PBST) buffer. Plates were blocked in 300 μL blocking buffer (1% BSA in PBST) at room temperature for 2 hours on an orbital shaker. […] Blocking buffer was discarded and 100 μL/well of diluted antibody was added to the plates. Plates were incubated at room temperature for 2 hours on an orbital shaker. Antibody solution was discarded and plates were washed three times using PBST. 100 μL/well of goat-anti-human IgG (H+L)-HRP (1:10,000 dilution in blocking buffer) solution was added to the plates, and plates were incubated at room temperature for 1 hour on an orbital shaker. Secondary antibody solution was discarded and plates were washed three times using PBST. 100 μL/well of QuantaBlu fluorogenic peroxidase substrate working solution (Thermo, Cat No. 15169) was added to the plates, and plates were incubated at room temperature for 30 min. Fluorescence was read at excitation 325 nm/emission 420 nm using a SpectraMax M5 (Molecular Devices). Data was analyzed using SoftMaxPro 5.4.2 software with 4-parameter fitting.

[2] = test system: IGROV1 cells; experiment: Crystal Violet cytotoxicity assay (Example 4), IGROV1; assay type: cell-based, human; details: mean of replicate experiments, read-out: Cytotoxicity IC50 (nM), IGROV1 (FR^hi, MSLN^neg)
Method: (§1) Test reagents were serial diluted 1:3 in 2 mL deep-well dilution plates, starting at 200 nM (10 dilutions total). […] Medium was then discarded. […] Plates were read at 570 nm. Data was analyzed using GraphPad Prism 6.

[3] = test system: NCI-H2110 cells; experiment: Crystal Violet cytotoxicity assay (Example 4), NCI-H2110; assay type: cell-based, human; details: mean of replicate experiments, read-out: Cytotoxicity IC50 (nM), NCI-H2110 (FR^med, MSLN^med)
Method: as §1

[4] = test system: A431 cells; experiment: Crystal Violet cytotoxicity assay (Example 4), A431 (parental); assay type: cell-based, human; details: mean of replicate experiments, read-out: Cytotoxicity IC50 (nM), A431 (FR^neg, MSLN^neg)
Method: Test reagents were serial diluted 1:3 in 2 mL deep-well dilution plates, starting at 200 nM (10 dilutions total). […] Medium was then discarded. […] Plates were read at 570 nm. Data was analyzed using GraphPad Prism 6. […]
MAL-PEG2-Val-Cit-PAB-eribulin (ER-001159569) was conjugated to eight different anti-human mesothelin antibodies (Table 1). Binding affinities of the parental antibodies were determined by BIAcore analysis, as described above in section 1.6.1. Aggregation levels for all anti-human mesothelin ADCs were determined by SEC-HPLC and the DAR was analyzed using HIC-HPLC. In vitro potency was evaluated using a Crystal Violet cell-based cytotoxicity assay in A3 (A431 stabily transfected with human mesothelin (MSLN), MSLN^hi), OVCAR3 (human ovarian, MSLN^hi), HEC-251 (human endometroid, MSLN^med), H226 (human lung squamous cell mesothelioma, MSLN^lo), and A431 parental (MSLN^neg) cells.

[5] = SEC-HPLC aggregation analysis; assay type: physicochemical
Method: The antibody aggregation was analyzed by size-exclusion, high-performance liquid chromatography (SEC-HPLC) using an Agilent 1100. The mAb was diluted to 1 mg/mL in DPBS. The antibody (20 μL) was injected onto a TSKgel® SuperSW guard column (4.6 mm×3.5 cm, 4 μm pore size, Tosoh Bioscience), followed by a TSKgel® SuperSW3000 column (4.6 mm×30 cm, 4 μm pore size), eluted from the column with 0.1 M sodium phosphate containing 0.15 M NaCl and 0.05% NaN3, at pH 7.4, at a flow rate of 0.3 mL/min for 20 min. All data were analyzed using Agilent ChemStation software. Percent aggregation was calculated as [PAaggregate/PAtotal]*100, where PA=integrated peak area.
ADC was diluted to 1 mg/mL in DPBS. ADC (10 μL) was then injected onto an Advanced SEC 300A guard column (4.6 mm×3.5 cm, 2.7 μm pore size, Agilent), followed by a AdvancedBio 300A column (4.6 mm×30 cm, 2.7 μm pore size). ADC was eluted from the column with 0.1 M sodium phosphate containing 0.15 M NaCl and 5% IPA, pH 7.4 at a flow rate of 0.25 mL/min for 28 min. All data were analyzed using Agilent ChemStation software. Percent aggregation was calculated as [PAaggregate/PAtotal]*100, where PA=integrated peak area.

[6] = test system: IGROV1 cells; experiment: Crystal Violet cytotoxicity assay (Examples 1 and 2), IGROV1
Method: (§2) Typically, test reagents were serial diluted 1:4 in 2 mL deep-well dilution plates, starting at 1 μM (10 dilutions total). 100 μL of diluted samples were added to the cell plates (starting concentration of test samples at 500 nM). […] Medium was discarded, plates were washed once with 200 μL DPBS, stained with 50 μL of 0.2% Crystal Violet solution at room temperature for 15 min, and then washed extensively with tap water. Plates were air-dried, and Crystal Violet was dissolved with 200 μL of 1% SDS solution. Plates were read at 570 nm. Data was analyzed using GraphPad Prism 6. Assays were performed using a seeding density of 1,000 cells per well and compound exposure was for a total of 5 days. When shorter-term exposure was desired, medium containing cytotoxic agents was removed after 4 hours and replaced with fresh growth medium prior to 5-day incubation. For OVCAR3, CaOV3, and NCI-H2110, cells were seeded at 3,000 cells/well and incubated for 5 days with ADC.
(§3) In vitro potency of prepared ADCs was assessed using a Crystal Violet assay as detailed in section 1.4.1.
(§4) SJSA-1 cells are a human osteosarcoma tumor cell line that are negative for folate receptor alpha.
(§5) Typically, test reagents were serially-diluted 1:4 in 2 mL deep-well dilution plates, starting at 1 μM (10 dilutions total). […] Plates were read at 570 nm. Data was analyzed using GraphPad Prism 6.

[7] = test system: SJSA-1 cells; experiment: Crystal Violet cytotoxicity assay (Examples 1 and 2), SJSA-1
Method: as §2, §3, §4
(§6) Typically, test reagents were serially-diluted 1:4 in 2 mL deep-well dilution plates, starting at 1 μM (10 dilutions total). 100 μL of diluted samples were added to the cell plates (starting concentration of test samples at 100 nM). […] Medium was discarded, plates were washed once with 200 μL DPBS, stained with 50 μL of 0.2% Crystal Violet solution at room temperature for 15 min, and then washed extensively with tap water. Plates were air-dried, and Crystal Violet was dissolved with 200 μL of 1% SDS solution. Plates were read at 570 nm. Data was analyzed using GraphPad Prism 6.

[8] = test system: NCI-H2110 cells; details: read-out: IC50 on NCI-H2110; Example 1
Method: as §2, §4, §6

[9] = test system: OVCAR3 cells; experiment: Crystal Violet cytotoxicity assay (Examples 1 and 2), OVCAR3; details: read-out: Cytotoxicity (IC50) OVCAR3; OVCAR3 cells; mean of replicate experiments, where performed
Method: as §2, §4
as §5, with “total). 100 μL of diluted samples were added to the cell plates (starting concentration of test samples at 100 nM).” for “total).”

[10] = test system: IGROV1 cells; experiment: Serum stability assay, cytotoxicity readout on IGROV1
Method: (§7) Following incubation, samples were frozen and stored at −20° C. until evaluation in cytotoxicity and binding assays. For cytotoxicity analyses, samples were evaluated on IGROV1 and SJSA-1 cells, as detailed in section 1.4.1. For binding assessment, samples were evaluated using a solution-based MSD ECL assay.
(§8) ER-001161319 is maytansine-based ADC comprising the same cleavable linker as VCP-eribulin, maleimido-PEG2-Val-Cit-pAB. PBS and serum controls were included to correct for any serum effects on assay performance.

[11] = test system: SJSA-1 cells; experiment: Serum stability assay, cytotoxicity readout on SJSA-1
Method: as §7, §8

[12] = read-out: Cell-based cytotoxicity assay, EC50, Human Serum, 0 hr-PBS
[13] = read-out: Cell-based cytotoxicity assay, EC50, Human Serum, 0 hr-Serum
[14] = read-out: Cell-based cytotoxicity assay, EC50, Human Serum, 4 hr at 37° C.
[15] = read-out: Cell-based cytotoxicity assay, EC50, Human Serum, 24 hr at 37° C.
[16] = read-out: Cell-based cytotoxicity assay, EC50, Mouse Serum, 0 hr-Serum
[17] = read-out: Cell-based cytotoxicity assay, EC50, Mouse Serum, 4 hr at 37° C.
[18] = read-out: Cell-based cytotoxicity assay, EC50, Mouse Serum, 24 hr at 37° C.
[19] = read-out: Cell-based cytotoxicity assay, EC50, Mouse Serum, 48 hr at 37° C.
[20] = read-out: Cell-based cytotoxicity assay, EC50, PBS, 0 hr-PBS
[21] = read-out: Cell-based cytotoxicity assay, EC50, PBS, 0 hr-Serum
[22] = read-out: Cell-based cytotoxicity assay, EC50, PBS, 4 hr at 37° C.
[23] = read-out: Cell-based cytotoxicity assay, EC50, PBS, 24 hr at 37° C.
[24] = read-out: Cell-based cytotoxicity assay, EC50, PBS, 48 hr at 37° C.

Sequence of Recombinant human folate receptor alpha (P15328 25-234): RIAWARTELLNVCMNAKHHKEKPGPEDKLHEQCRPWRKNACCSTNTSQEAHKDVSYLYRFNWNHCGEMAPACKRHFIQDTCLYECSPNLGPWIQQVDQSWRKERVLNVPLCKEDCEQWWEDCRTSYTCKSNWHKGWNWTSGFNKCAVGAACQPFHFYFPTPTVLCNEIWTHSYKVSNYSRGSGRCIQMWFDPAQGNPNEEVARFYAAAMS

MORAb003-DBCO-PEG2 eribulin
Antigen Binding ELISA, EC50 [1]: 0.0191 µg/mL | IC50 [2]: 4.25 nM | IC50 [3]: 38.1 nM | IC50 [4]: > 100 nM

MORAb003-DBCO-PEG4 VCP eribulin
Antigen Binding ELISA, EC50 [1]: 0.016 µg/mL | IC50 [2]: 0.038 nM | IC50 [3]: 4.28 nM | IC50 [4]: > 100 nM

MORAb003-DBCO-PEG4 eribulin
Antigen Binding ELISA, EC50 [1]: 0.0133 µg/mL | IC50 [2]: 1.32 nM | IC50 [3]: 46.3 nM | IC50 [4]: > 100 nM

MORAb003-PEG2-eribulin
Antigen Binding ELISA, EC50 [1]: 0.00696 µg/mL | IC50 [2]: 0.33 nM | IC50 [3]: 38.3 nM | IC50 [4]: > 100 nM

MORAb003-PEG4-eribulin
SEC-HPLC Analysis % Frag. [5]: 0% | SEC-HPLC Analysis % Monomer [5]: 89.76% | Antigen Binding ELISA, EC50 [1]: 0.00931 µg/mL | IC50 [2]: 0.277 nM | IC50 [3]: 21.6 nM | IC50 [4]: > 100 nM

MORAb-003-PEG-pAB-duostatin 3 [M-0285]
cytotoxicity and specificity on IGROV1 cell line, in words ([6]; Example 1 screening, IGROV1 versus SJSA-1): specific cytotoxicity | IC50 ([6]; read-out: Cytotoxicity (IC50) IGROV1, IGROV1 cells, mean of replicate experiments, where performed): 0.3 nM | killing of FR-negative SJSA-1 cells (off-target), in words ([7]; Example 1 screening): little cytotoxicity | IC50 ([7]; read-out: Cytotoxicity (IC50) SJSA-1, SJSA-1 cells, mean of replicate experiments, where performed): > 100 nM | IC50 [8]: 14 nM | IC50 [9]: 8.8 nM | EC50 [10, 12]: 0.089 nM | EC50 [10, 13]: 0.078 nM | EC50 [10, 14]: 0.075 nM | EC50 [10, 15]: 0.074 nM | EC50 [10, 16]: 0.049 nM | EC50 [10, 17]: 0.049 nM | EC50 [10, 18]: 0.044 nM | EC50 [10, 19]: 0.051 nM | EC50 [10, 20]: 0.074 nM | EC50 [10, 21]: 0.063 nM | EC50 [10, 22]: 0.065 nM | EC50 [10, 23]: 0.059 nM | EC50 [10, 24]: 0.043 nM | EC50 [11, 12]: > 10 nM | EC50 [11, 13]: > 10 nM | EC50 [11, 14]: > 10 nM | EC50 [11, 15]: > 10 nM | EC50 ([11]; read-out: Cell-based cytotoxicity assay, EC50, Human Serum, 48 hr at 37° C.): > 10 nM | EC50 ([11]; read-out: Cell-based cytotoxicity assay, EC50, Mouse Serum, 0 hr-PBS): > 10 nM | EC50 [11, 16]: > 10 nM | EC50 [11, 17]: > 10 nM | EC50 [11, 18]: > 10 nM | EC50 [11, 19]: > 10 nM | EC50 [11, 20]: > 10 nM | EC50 [11, 21]: > 10 nM | EC50 [11, 22]: > 10 nM | EC50 [11, 23]: > 10 nM | EC50 [11, 24]: > 10 nM
